Experimental data as given in patent US20260166158A1, “HSP90-BINDING CONJUGATES AND FORMULATIONS THEREOF” (Fusion Pharmaceuticals Inc., priority 2019, published 2026).

Test system: NCI-H460 tumor-bearing mice (lung cancer)
Assay: Biodistribution: lutetium accumulation in tumor, plasma and healthy tissues by ICP-MS
Format: in vivo
Details: 24 h; for Kidney uptake, % ID/g 24 h / Liver uptake, % ID/g 24 h / Plasma, % ID/g 24 h / Tumor uptake, % ID/g, 24 h: second table
Protocol: Lutetium accumulation was measured in tumor, plasma and healthy tissues of NCI-H460 tumor-bearing mice (lung cancer). NCJ-H460 tumor bearing mice were dosed with 0.5 mg/kg of lutetium conjugates. At the time points indicated, mice were sacrificed and tumor, liver, kidneys and plasma were taken. All tissues were analyzed for lutetium content by ICP-MS, and lutetium uptake in % ID/g determined by the following equation: […]
Biodistribution at 24 h and Tumor/Kidney ratio (T/K), Tumor/Liver ratio (T/L), Tumor/Plasma ratio (T/P) are give in the table below.

Row | SMILES | T/K (Tumor/Kidney ratio) | T/L (Tumor/Liver ratio) | T/P (Tumor/Plasma ratio) | Kidney uptake, % ID/g 24 h | Liver uptake, % ID/g 24 h | Plasma, % ID/g 24 h | Tumor uptake, % ID/g, 24 h
1 | CCNC(=O)c1nnc(-c2cc(C(C)C)c(O)cc2O)n1-c1ccc(CN2CCN(C(=O)CCOCCOCCOCCOCCNC(=O)CN3CCN4CCN5CCN6CC(=O)O[C]6(C3)[Lu]([O]C(=O)C4)[O]C(=O)C5)CC2)cc1 (centres unmarked) [CMP1] | 1.28 | 1.92 | 7.68 | 0.91 % ID/g | 0.607 % ID/g | 0.152 % ID/g | 1.167 % ID/g
2 | CCNC(=O)c1nnc(-c2cc(C(C)C)c(O)cc2O)n1-c1ccc(OC2CCN(C(=O)CCOCCOCCOCCOCCNC(=O)CC[C@@H](C(=O)O)N(CC)CCN3CCN4CCN(C)CC(=O)[O][Lu]([O]C(=O)C4)[O]C(=O)C3)CC2)cc1 [CMP2] | 2.12 | 1.98 | 2.51 | 0.438 % ID/g | 0.469 % ID/g | 0.369 % ID/g | 0.927 % ID/g
3 | CCNC(=O)c1nnc(-c2cc(C(C)C)c(O)cc2O)n1-c1ccc(CC2CCN(C(=O)CCOCCOCCOCCOCCOCCOCCOCCOCCOCCOCCOCCOCCNC(=O)[C@H](CCCCNC(=O)CCCc3ccc(I)cc3)NC(=O)CN3CCN4CCN5CCN(CC3)CC(=O)[O][Lu]([O]C(=O)C4)[O]C(=O)C5)CC2)cc1 [CMP3] | 3.38 | 2.39 | 0.84 | 5.13 % ID/g | 7.26 % ID/g | 20.57 % ID/g | 17.36 % ID/g
4 | CCNC(=O)c1nnc(-c2cc(C(C)C)c(O)cc2O)n1-c1ccc(CC2CCN(C(=O)CCOCCOCCOCCOCCNC(=O)[C@H](CCCCNC(=O)CCCc3ccc(I)cc3)NC(=O)CN(CC)CCN3CCN4CCN(C)CC(=O)[O][Lu]([O]C(=O)C4)[O]C(=O)C3)CC2)cc1 [CMP4] | 2.53 | 3.55 | 0.87 | 3.24 % ID/g | 2.31 % ID/g | 9.48 % ID/g | 8.21 % ID/g
5 | CCNC(=O)c1nnc(-c2cc(C(C)C)c(O)cc2O)n1-c1ccc(OC2CCN(C(=O)CCOCCOCCOCCOCCOCCOCCOCCOCCOCCOCCOCCOCCNC(=O)[C@H](CCCCNC(=O)CCCc3ccc(I)cc3)NC(=O)CN3CCN4CCN5CCN(CC3)CC(=O)[O][Lu]([O]C(=O)C4)[O]C(=O)C5)CC2)cc1 [CMP5] | 3.05 | 3.17 | 1.42 | 3.95 % ID/g | 3.80 % ID/g | 8.48 % ID/g | 12.05 % ID/g
6 | CCNC(=O)c1nnc(-c2cc(C(C)C)c(O)cc2O)n1-c1ccc(CC2CCN(C(=O)CCOCC(COCCC(=O)N3CCC(Cc4ccc(-n5c(C(=O)NCC)nnc5-c5cc(C(C)C)c(O)cc5O)cc4)CC3)NC(=O)CC[C@H](C(=O)O)N3CCN4CCN5CCN(CC3)CC(=O)[O][Lu]([O]C(=O)C5)[O]C(=O)C4)CC2)cc1 [CMP8] | 2.01 | 1.67 | 4.01 | 2.91 % ID/g | 3.50 % ID/g | 1.46 % ID/g | 5.86 % ID/g
7 | CCNC(=O)c1nnc(-c2cc(C(C)C)c(O)cc2O)n1-c1ccc(CC2CCN(C(=O)CCC(=O)N[C@@H](CCCCNC(=O)CN3CCN4CCN5CCN(CC3)CC(=O)[O][Lu]([O]C(=O)C4)[O]C(=O)C5)C(=O)N3CCC(Cc4ccc(-n5c(C(=O)NCC)nnc5-c5cc(C(C)C)c(O)cc5O)cc4)CC3)CC2)cc1 [CMP24] | 2.58 | 1.07 | 0.89 | 4.81 % ID/g | 11.53 % ID/g | 13.96 % ID/g | 12.39 % ID/g
8 | CCNC(=O)c1nnc(-c2cc(C(C)C)c(O)cc2O)n1-c1ccc(CC2CCN(C(=O)C[C@H](NC(=O)CN3CCN4CCN5CCN(CC3)CC(=O)[O][Lu]([O]C(=O)C4)[O]C(=O)C5)C(=O)N[C@H](C)C(=O)N3CCC(Cc4ccc(-n5c(C(=O)NCC)nnc5-c5cc(C(C)C)c(O)cc5O)cc4)CC3)CC2)cc1 [CMP27] | 1.13 | 0.50 | 1.53 | 6.66 % ID/g | 14.98 % ID/g | 4.89 % ID/g | 7.50 % ID/g
9 | CCNC(=O)c1nnc(-c2cc(C(C)C)c(O)cc2O)n1-c1ccc(CC2CCN(C(=O)C[C@H](NC(=O)CC[C@H](C(=O)O)N3CCN4CCN5CCN(CC3)CC(=O)[O][Lu]([O]C(=O)C5)[O]C(=O)C4)C(=O)N[C@H](C)C(=O)N3CCC(Cc4ccc(-n5c(C(=O)NCC)nnc5-c5cc(C(C)C)c(O)cc5O)cc4)CC3)CC2)cc1 [CMP28] | 0.90 | 0.79 | 1.13 | 8.90 % ID/g | 10.10 % ID/g | 7.11 % ID/g | 8.01 % ID/g
10 | CCNC(=O)c1nnc(-c2cc(C(C)C)c(O)cc2O)n1-c1ccc(C2CN(C(=O)CCOCCOCCOCCOCCNC(=O)CN3CCN4CCN5CCN(CC3)CC(=O)[O][Lu]([O]C(=O)C4)[O]C(=O)C5)C2)cc1 [CMP29] | 2.19 | 2.23 | 4.08 | 1.12 % ID/g | 1.10 % ID/g | 0.60 % ID/g | 2.45 % ID/g
11 | CCNC(=O)c1nnc(-c2cc(C(C)C)c(O)cc2O)n1-c1ccc(C2CCN(C(=O)CCOCCOCCOCCOCCNC(=O)CN3CCN4CCN5CCN(CC3)CC(=O)[O][Lu]([O]C(=O)C4)[O]C(=O)C5)CC2)cc1 [CMP30] | 2.57 | 0.62 | 2.75 | 0.76 % ID/g | 3.16 % ID/g | 0.71 % ID/g | 1.95 % ID/g
12 | CCNC(=O)c1nnc(-c2cc(C(C)C)c(O)cc2O)n1-c1ccc(CC2CCN(C(=O)CCOCCOCCOCCOCCNC(=O)CN3CCN4CCN5CCN(CC3)CC(=O)[O][Lu]([O]C(=O)C4)[O]C(=O)C5)CC2)cc1 [CMP31] | 5.00 | 2.30 | 5.19 | 0.84 % ID/g | 1.83 % ID/g | 0.81 % ID/g | 4.20 % ID/g
13 | CCNC(=O)c1nnc(-c2cc(C(C)C)c(O)cc2O)n1-c1ccc(C2CN(C(=O)CCOCCOCCOCCOCCOCCOCCOCCOCCOCCOCCOCCOCCNC(=O)CN3CCN4CCN5CCN(CC3)CC(=O)[O][Lu]([O]C(=O)C4)[O]C(=O)C5)C2)cc1 [CMP32] | 2.15 | 5.26 | 6.81 | 1.17 % ID/g | 0.48 % ID/g | 0.37 % ID/g | 2.52 % ID/g
14 | CCNC(=O)c1nnc(-c2cc(C(C)C)c(O)cc2O)n1-c1ccc(C2CCN(C(=O)CCOCCOCCOCCOCCOCCOCCOCCOCCOCCOCCOCCOCCNC(=O)CN3CCN4CCN5CCN(CC3)CC(=O)[O][Lu]([O]C(=O)C4)[O]C(=O)C5)CC2)cc1 [CMP33] | 2.05 | 3.64 | 5.11 | 1.62 % ID/g | 0.91 % ID/g | 0.65 % ID/g | 3.32 % ID/g
15 | CCNC(=O)c1nnc(-c2cc(C(C)C)c(O)cc2O)n1-c1ccc(CC2CCN(C(=O)CCOCCOCCOCCOCCOCCOCCOCCOCCOCCOCCOCCOCCNC(=O)CN3CCN4CCN5CCN(CC3)CC(=O)[O][Lu]([O]C(=O)C4)[O]C(=O)C5)CC2)cc1 [CMP34] | 3.96 | 3.06 | 5.54 | 1.12 % ID/g | 1.45 % ID/g | 0.80 % ID/g | 4.43 % ID/g
16 | CCNC(=O)c1nnc(-c2cc(C(C)C)c(O)cc2O)n1-c1ccc(OC2CCN(C(=O)CCNC(=O)[C@@H](CCC(=O)N3CCC(Oc4ccc(-n5c(C(=O)NCC)nnc5-c5cc(C(C)C)c(O)cc5O)cc4)CC3)NC(=O)CCOCCOCCOCCOCCNC(=O)CN3CCN4CCN5CCN(CC3)CC(=O)[O][Lu]([O]C(=O)C4)[O]C(=O)C5)CC2)cc1 [CMP35] | 0.74 | 0.50 | 3.97 | 11.87 % ID/g | 17.67 % ID/g | 2.212 % ID/g | 8.776 % ID/g
17 | CCNC(=O)c1nnc(-c2cc(C(C)C)c(O)cc2O)n1-c1ccc(OC2CCN(C(=O)CCNC(=O)[C@@H](CCC(=O)N3CCC(Oc4ccc(-n5c(C(=O)NCC)nnc5-c5cc(C(C)C)c(O)cc5O)cc4)CC3)NC(=O)CCOCCOCCOCCOCCOCCOCCOCCOCCOCCOCCOCCOCCNC(=O)CN3CCN4CCN5CCN(CC3)CC(=O)[O][Lu]([O]C(=O)C4)[O]C(=O)C5)CC2)cc1 [CMP36] | 0.99 | 0.41 | 7.34 | 3.36 % ID/g | 8.16 % ID/g | 0.45 % ID/g | 3.32 % ID/g
